Test system: allergic airway inflammation (murine allergy model)
Assay: Therapeutic treatment of OVA/Alum-induced allergic airway inflammation
Assay type: in vivo, mice
Conditions: treated after exposure to OVA
Protocol: To test the therapeutic effect of OVA encapsulated in PLG particles on airway inflammation, mice were treated intraperitoneally with OVA/Alum at a dose of 10 μg/mouse on day 0 and day 14. The mice were intravenously administered with OVA-PLG on days 28, and 42. Between days 56-58, the mice were treated three times with aerosolized OVA.
The animals were treated as described above except that on days 28 and 42, the mice were treated with either OVA encapsulated in PLG particles, or OVA coupled to PLG particles.
In the allergy model, coupled nanoparticles have a propensity to cause anaphylaxis and are not an effective therapy. […] Animals were exposed to OVA as an allergen, and were then treated with either a sham-PLG or TIMP particle, a PLG or TIMP particle with OVA, or no treatment.

B1: OVA-PLG surface coupled particles: PLGA particle with OVA coupled to the outside of the particle (conjugate, UniProt P01012 2-386, looked up)
Ovalbumin: GSIGAASMEFCFDVFKELKVHHANENIFYCPIAIMSALAMVYLGAKDSTRTQINKVVRFDKLPGFGDSIEAQCGTSVNVHSSLRDILNQITKPNDVYSFSLASRLYAEERYPILPEYLQCVKELYRGGLEPINFQTAADQARELINSWVESQTNGIIRNVLQPSSVDSQTAMVLVNAIVFKGLWEKAFKDEDTQAMPFRVTEQESKPVQMMYQIGLFRVASMASEKMKILELPFASGTMSMLVLLPDEVSGLEQLESIINFEKLTEWTSSNVMEERKIKVYLPRMKMEEKYNLTSVLMAMGITDVFSSSANLSGISSAESLKISQAVHAAHAEINEAGREVVGSAEAGVDAASVSEEFRADHPFLFCIKHIATNAVLFFGRCVSP
modifications: coupled to PLG particles
With B1 as the molecule, how does the TH2 response read?
Its TH2 response is “fail to reduce the TH2 response”.
